Measured values as given in patent US9260500B2, “Peptide and use thereof” (Takeda Pharmaceutical Company Limited, priority 2009, dated 2016).
Non-standard residues stand in square brackets, D forms with d. *: point of attachment. 4Pal = N[C@@H](Cc1ccncc1)C(=O)O; Cha = N[C@@H](CC1CCCCC1)C(=O)O; Isobutyryl = CC(C)C(=O)*; Iva = CC[C@](C)(N)C(=O)O; Abu = CC[C@H](N)C(=O)O; Nar = not defined here; Aib = CC(C)(N)C(=O)O; Bz = O=C(c1ccccc1)*

Experiments:
human Y2 receptor [1] = molecular target: T1, human Y2 receptor (Homo sapiens, UniProt P49146); assay: Human Y2 Receptor G Protein Binding Assay (GBA), [35S]GTPγS; assay type: biochemical; conditions: EC50 of test compound/EC50 of PYY(3-36) (PYY3-36 taken as 1), hY2R/CHO membrane fraction
T1 construct: expressed in transfected cells; membrane fraction
T1 sequence (P49146 1-381): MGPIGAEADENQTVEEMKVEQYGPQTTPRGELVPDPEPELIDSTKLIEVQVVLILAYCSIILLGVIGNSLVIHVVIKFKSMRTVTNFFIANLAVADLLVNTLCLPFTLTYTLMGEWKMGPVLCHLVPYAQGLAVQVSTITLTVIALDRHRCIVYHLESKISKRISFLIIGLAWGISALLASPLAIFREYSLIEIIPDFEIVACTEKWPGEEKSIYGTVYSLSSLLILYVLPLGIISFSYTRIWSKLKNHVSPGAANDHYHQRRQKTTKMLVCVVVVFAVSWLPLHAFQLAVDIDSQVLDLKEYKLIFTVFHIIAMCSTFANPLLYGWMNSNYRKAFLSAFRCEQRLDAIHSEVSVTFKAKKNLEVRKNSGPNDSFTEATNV
Description: (3) Test Method: Human Y2 Receptor G Protein Binding Assay (GBA)
The agonist activity of the compound of the present invention against the human Y2 receptor was measured by the method described below.
2 μL of the test compound, serially diluted with DMSO from 100 μM to 1 nM, was dispensed to a 96-well plate, and 100 μL of the membrane fraction, previously diluted with an assay buffer (50 mM Tris, 5 mM MgCl2, 150 mM NaCl, […], 0.03% NaN3, 0.1% BSA, pH 7.4) to 1 μg protein/mL, was dispensed thereto, subsequently, 100 μL of a [^35S]GTPγS (NEG030H, PerkinElmer, previously diluted with the assay buffer to 1 nM) was added, and they were mixed by pipetting. After incubation at room temperature for 120 minutes, the mixture was filtered through the cell harvester FilterMate (PerkinElmer) using the UniFilter-96 GF/C (PerkinElmer), and the filter was washed 3 times with a filtering buffer (50 mM Tris, 5 mM MgCl2, 150 mM NaCl, 0.03% NaN3, 0.05% CHAPS, pH 7.4). Thereafter, UniFilter-96 GF/C was dried in a mechanical drier for 1 hour, 15 μl of the liquid scintillator MicroScint O (PerkinElmer) was added to each well, and a measurement was taken using TopCount (PerkinElmer). The data obtained were analyzed using Prism to calculate the EC50 value. The agonist activity of the test compound was expressed as a ratio to the EC50 value of PYY3-36 taken as 1 (EC50 Ratio: EC50 of test compound/EC50 of PYY(3-36)). The results are shown in the GBA column in Table 5 (Table 5-1-Table 5-10).

human Y2 receptor [2] = molecular target: T1, human Y2 receptor; assay: Receptor Binding Assay (RBA) for Human Y2, [125I]-PYY displacement on hY2R/CHO membrane fraction; conditions: IC50 of test compound/IC50 of PYY(3-36) (PYY(3-36) taken as 1)
Description: (1) Construction of Expression Plasmid for the Human Y2 Receptor (Y2R) Gene
PCR was performed by a reaction using Pfu DNA polymerase ([…]), with a human brain cDNA (PT3158-1, Clontech) as the template, wherein synthetic DNAs with the following sequences were used as a combination of 5′ and 3′ primers, whereby the human Y2R gene was cloned. Primer 1 was prepared on the basis of base sequence information on the human Y2R gene (Refseq ID No. NM_000910) with the addition of Kozak's consensus sequence. Primer 2 was prepared on the basis of base sequence information on the human Y2R gene.
The PCR product obtained was cloned into pCR4-Blunt-TOPO (Invitrogen), and the plasmid was extracted according to a conventional method (QIAwell 8 Plus, QIAGEN). After confirming the base sequence, the human Y2R gene was re-cloned by a PCR reaction with the plasmid DNA as the template, using Primer 1 as the 5′ primer and Primer 2 as the 3′ primer. The PCR was performed using the Pyrobest DNA polymerase (TaKaRa). The PCR product obtained was re-cloned into pCR-Blunt II-TOPO (Invitrogen), and the plasmid was extracted according to a conventional method (QIAGEN). An Xho I restriction enzyme digestion site and an Spe I restriction enzyme digestion site are present in the cloning site of the pCR-Blunt II-TOPO; a plasmid clone was selected wherein the human Y2R gene was inserted in the orientation such that the Xho I restriction enzyme digestion site was positioned upstream of Primer 1, and the Spe I restriction enzyme digestion site was positioned downstream of Primer 2. After confirming the base sequence, the plasmid clone was digested with the restriction enzymes Xho I and Spe I to yield a DNA fragment. The DNA fragment was inserted into the animal cell expression vector pAKKO-111H (the same plasmid as pAKKO-1.111H described in Biochem. Biophys. Acta, Hinuma, S. et al., 1219, 251-259 (1994)), which was enzymatically digested with Sal I and Spe I, to yield the expression plasmid pAK-hY2R (pAKKO-111H/Y2R).
(2) Test Method: Receptor Binding Assay (RBA) for Human Y2
A human NPY2R (hY2R) stable expression cell line was acquired by transducing the animal cell expression plasmid pAK-hY2R into CHO/dhfr-cells using the CellPhect Transfection kit (Amersham Pharmacia Biotech Co.). First, 240 μl of Buffer A (attached to the CellPhect Transfection kit) was added to 9.6 μg of the plasmid DNA dissolved in 240 μl of distilled water; this mixture was stirred and allowed to stand for 10 minutes, after which 480 μL of Buffer B (attached to the CellPhect Transfection kit) was added, and the mixture was vigorously stirred to form a liposome containing the DNA. 2.5×10^5 or 4×10^5 CHO/dhfr− cells (obtained from ATCC) were seeded to 60 mm petri dishes, and cultured in Ham's F-12 medium (Sigma Co.) containing 10% fetal bovine serum (BioWest Co.) at 37° C. in 5% gaseous carbon dioxide for 1 day, after which 480 μL of the liposome was added drop by drop on to the cells in each petri dish. This was cultured at 37° C. in 5% gaseous carbon dioxide for 6 hours, after which the cells were twice washed with serum-free Ham's F-12 medium; 3 mL of 15% glycerol was added onto the cells in the petri dish and treated for 2 minutes. This was again washed 3 times with serum-free Ham's F-12 medium, after which the cells were cultured in Ham's F-12 medium containing 10% fetal bovine serum at 37° C. in 5% gaseous carbon dioxide. The cells were dispersed by trypsinization and recovered from the petri dishes, and seeded to a 6-well plate at 2.5×10^4 or 4×10^4 cells per well; cultivation was begun in Dulbecco's modified Eagle medium <DMEM> medium (Sigma Co.) containing dialyzed 10% fetal bovine serum (Invitrogen Co.) at 37° C. in 5% gaseous carbon dioxide. Since plasmid-introduced transformant CHO cells grow in the medium, whereas cells without plasmid introduction die gradually, about 20 colonies of transformed CHO cell that had grown 9-13 days after the start of the cultivation were isolated. […]

Row | Substance | GBA EC50 Ratio (human Y2 receptor [1]) | RBA IC50 Ratio (human Y2 receptor [2])
1 | Ac-[D-Pro24, Pya(4)26, Cha27,36, Aib28, Lys30, Iva31]-PYY(23-36) (Ac-S[dP]R[4Pal][Cha][Aib]NK[Iva]TRQR[Cha]-NH2; SMILES CC[C@](C)(NC(=O)[C@H](CCCCN)NC(=O)[C@H](CC(N)=O)NC(=O)C(C)(C)NC(=O)[C@H](CC1CCCCC1)NC(=O)[C@H](Cc1ccncc1)NC(=O)[C@H](CCCNC(=N)N)NC(=O)[C@H]1CCCN1C(=O)[C@H](CO)NC(C)=O)C(=O)N[C@H](C(=O)N[C@@H](CCCNC(=N)N)C(=O)N[C@@H](CCC(N)=O)C(=O)N[C@@H](CCCNC(=N)N)C(=O)N[C@@H](CC1CCCCC1)C(N)=O)[C@@H](C)O) [compound No. 231] | 2.1 | 0.85
2 | Ac-[Ala26, Ile28,31, Arg(Me)35]-PYY(22-36) [compound No. 1] | 13 | 50
3 | Ac-[D-Pro24, Aib25,28,31, Pya(4)26, Cha27,36, Lys30]-PYY(23-36) (Ac-S[dP][Aib][4Pal][Cha][Aib]NK[Aib]TRQR[Cha]-NH2; SMILES CC(=O)N[C@@H](CO)C(=O)N1CCC[C@@H]1C(=O)NC(C)(C)C(=O)N[C@@H](Cc1ccncc1)C(=O)N[C@@H](CC1CCCCC1)C(=O)NC(C)(C)C(=O)N[C@@H](CC(N)=O)C(=O)N[C@@H](CCCCN)C(=O)NC(C)(C)C(=O)N[C@H](C(=O)N[C@@H](CCCNC(=N)N)C(=O)N[C@@H](CCC(N)=O)C(=O)N[C@@H](CCCNC(=N)N)C(=O)N[C@@H](CC1CCCCC1)C(N)=O)[C@@H](C)O) [compound No. 236] | 1.7 | 8.4
4 | Ac-[D-Pro24, Iva25, Cha27,36, Aib28,31, Lys30]-PYY(23-36) (Ac-S[dP][Iva]H[Cha][Aib]NK[Aib]TRQR[Cha]-NH2; SMILES CC[C@](C)(NC(=O)[C@H]1CCCN1C(=O)[C@H](CO)NC(C)=O)C(=O)N[C@@H](Cc1c[nH]cn1)C(=O)N[C@@H](CC1CCCCC1)C(=O)NC(C)(C)C(=O)N[C@@H](CC(N)=O)C(=O)N[C@@H](CCCCN)C(=O)NC(C)(C)C(=O)N[C@H](C(=O)N[C@@H](CCCNC(=N)N)C(=O)N[C@@H](CCC(N)=O)C(=O)N[C@@H](CCCNC(=N)N)C(=O)N[C@@H](CC1CCCCC1)C(N)=O)[C@@H](C)O) [compound No. 239] | 5.2 | 8.8

Further lines, results first:

Row | GBA EC50 Ratio (human Y2 receptor [1]) | RBA IC50 Ratio (human Y2 receptor [2]) | Substance
5 | 1.0 | 1.2 | Ac-[Leu22, D-Pro24, Pya(4)26, Cha27,36, Aib28,31, Lys30]-PYY(22-36) (Ac-LS[dP]R[4Pal][Cha][Aib]NK[Aib]TRQR[Cha]-NH2; SMILES CC(=O)N[C@@H](CC(C)C)C(=O)N[C@@H](CO)C(=O)N1CCC[C@@H]1C(=O)N[C@@H](CCCNC(=N)N)C(=O)N[C@@H](Cc1ccncc1)C(=O)N[C@@H](CC1CCCCC1)C(=O)NC(C)(C)C(=O)N[C@@H](CC(N)=O)C(=O)N[C@@H](CCCCN)C(=O)NC(C)(C)C(=O)N[C@H](C(=O)N[C@@H](CCCNC(=N)N)C(=O)N[C@@H](CCC(N)=O)C(=O)N[C@@H](CCCNC(=N)N)C(=O)N[C@@H](CC1CCCCC1)C(N)=O)[C@@H](C)O) [compound No. 274]
6 | 21 | 19 | Benzoyl-[Asn26, Cha27,28,36, Aib31]-PYY(25-36) (Bz-RN[Cha][Cha]NL[Aib]TRQR[Cha]-NH2; SMILES CC(C)C[C@H](NC(=O)[C@H](CC(N)=O)NC(=O)[C@H](CC1CCCCC1)NC(=O)[C@H](CC1CCCCC1)NC(=O)[C@H](CC(N)=O)NC(=O)[C@H](CCCNC(=N)N)NC(=O)c1ccccc1)C(=O)NC(C)(C)C(=O)N[C@H](C(=O)N[C@@H](CCCNC(=N)N)C(=O)N[C@@H](CCC(N)=O)C(=O)N[C@@H](CCCNC(=N)N)C(=O)N[C@@H](CC1CCCCC1)C(N)=O)[C@@H](C)O) [compound No. 99]
7 | 22 | 19 | Isobutanoyl-[Abu26, Cha27,28,36, Gln30, Aib31]-PYY(25-36) (Isobutyryl-R[Abu][Cha][Cha]NQ[Aib]TRQR[Cha]-NH2; SMILES CC[C@H](NC(=O)[C@H](CCCNC(=N)N)NC(=O)C(C)C)C(=O)N[C@@H](CC1CCCCC1)C(=O)N[C@@H](CC1CCCCC1)C(=O)N[C@@H](CC(N)=O)C(=O)N[C@@H](CCC(N)=O)C(=O)NC(C)(C)C(=O)N[C@H](C(=O)N[C@@H](CCCNC(=N)N)C(=O)N[C@@H](CCC(N)=O)C(=O)N[C@@H](CCCNC(=N)N)C(=O)N[C@@H](CC1CCCCC1)C(N)=O)[C@@H](C)O) [compound No. 90]
8 | 1.8 | 1.1 | Ac-[D-Pro24, Nar25, Pya(4)26, Cha27,36, Aib28,31, Lys30]-PYY(23-36) (Ac-S[dP][Nar][4Pal][Cha][Aib]NK[Aib]TRQR[Cha]-NH2; reading uncertain) [compound No. 290]
9 | 22 | 26 | Isobutanoyl-[Abu26, Cha27,36, Pya(4)28, Aib31]-PYY(25-36) (Isobutyryl-R[Abu][Cha][4Pal]NL[Aib]TRQR[Cha]-NH2; SMILES CC[C@H](NC(=O)[C@H](CCCNC(=N)N)NC(=O)C(C)C)C(=O)N[C@@H](CC1CCCCC1)C(=O)N[C@@H](Cc1ccncc1)C(=O)N[C@@H](CC(N)=O)C(=O)N[C@@H](CC(C)C)C(=O)NC(C)(C)C(=O)N[C@H](C(=O)N[C@@H](CCCNC(=N)N)C(=O)N[C@@H](CCC(N)=O)C(=O)N[C@@H](CCCNC(=N)N)C(=O)N[C@@H](CC1CCCCC1)C(N)=O)[C@@H](C)O) [compound No. 83]
